doi:10.1101/629683

Target: mCh-vinT12-cBAK (constitutively active, opened form of full-length vinculin, mCherry-tagged, with cBAK) (gallus gallus) (UniProt P12003)
Experiment: Fluorescence Loss After Photoactivation

UniProt P12003, sequence (P12003 whole entry): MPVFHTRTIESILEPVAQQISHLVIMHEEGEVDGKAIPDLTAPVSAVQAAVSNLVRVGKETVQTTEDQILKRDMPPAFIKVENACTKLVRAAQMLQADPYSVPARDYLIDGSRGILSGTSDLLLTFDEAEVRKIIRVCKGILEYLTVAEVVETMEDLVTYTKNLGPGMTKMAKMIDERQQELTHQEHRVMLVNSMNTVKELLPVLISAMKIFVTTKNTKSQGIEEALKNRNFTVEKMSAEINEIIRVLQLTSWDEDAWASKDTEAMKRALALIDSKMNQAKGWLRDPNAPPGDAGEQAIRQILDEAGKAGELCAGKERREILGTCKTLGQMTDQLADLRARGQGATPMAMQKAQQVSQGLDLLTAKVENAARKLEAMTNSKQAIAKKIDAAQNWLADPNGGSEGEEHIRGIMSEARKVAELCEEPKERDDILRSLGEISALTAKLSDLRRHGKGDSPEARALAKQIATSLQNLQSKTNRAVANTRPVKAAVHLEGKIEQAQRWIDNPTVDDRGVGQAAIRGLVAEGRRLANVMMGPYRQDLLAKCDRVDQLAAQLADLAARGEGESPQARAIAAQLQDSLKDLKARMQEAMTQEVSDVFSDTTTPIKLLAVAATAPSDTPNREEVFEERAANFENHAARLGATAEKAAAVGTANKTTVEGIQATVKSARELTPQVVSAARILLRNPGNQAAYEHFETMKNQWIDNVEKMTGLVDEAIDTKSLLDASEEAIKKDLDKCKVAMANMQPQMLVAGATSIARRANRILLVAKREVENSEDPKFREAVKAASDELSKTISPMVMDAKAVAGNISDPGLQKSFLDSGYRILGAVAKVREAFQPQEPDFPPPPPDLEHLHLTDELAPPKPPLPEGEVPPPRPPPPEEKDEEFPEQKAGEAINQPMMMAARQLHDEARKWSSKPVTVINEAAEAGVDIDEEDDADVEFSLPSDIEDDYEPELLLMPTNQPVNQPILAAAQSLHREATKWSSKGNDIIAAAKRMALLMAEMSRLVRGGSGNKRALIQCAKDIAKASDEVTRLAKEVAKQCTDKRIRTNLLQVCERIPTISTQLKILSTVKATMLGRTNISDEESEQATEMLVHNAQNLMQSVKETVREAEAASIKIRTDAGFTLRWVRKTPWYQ

mobile fraction (Mf) in FLAP: < 20%
Substance: Photo-Activatable (PA) GFP-TalinFL (from UniProt P26039 1-2541) (natural protein)
